In PMC3655812 (Molecular Biology of the Cell, 2013):
Substitutions are numbered along the chain they refer to. Numbers in names are those of the source.

B1: MBP-Mgm101 (wild-type fusion of maltose-binding protein with Mgm101 lacking the mitochondrial targeting signal) (natural protein, yeast, UniProt P32787 23-269, looked up)
chain: VVSTGTSNTATAGAVRKSFNSTETKPVFATKSEAGNGSHMKEYSSGINSKLGGTPLETRSTADDSLNNSYKQVKGDIDWYTSWYGLGMKPFEAKVQKDLIEPLDPKDIEIKPDGLIYLPEIKYRRILNKAFGAGGWGLVPRSQTIVTSKLVTREYGLICHGQLISVARGEQDYFNEAGIPTATEGCKSNALMRCCKDLGVGSELWDPVFIKKFKVDHCTEKFVEHVTTKRKKKIWLRKDRQVEYPYK
B2: MBP-Mgm101^(K251-K253)A (natural protein, yeast, UniProt P32787 23-269, looked up)
chain: B1 chain with K229A, R230A, K231A
B3: Mgm101^(K251-K253)A (tag-free) (natural protein, yeast, UniProt P32787 23-269, looked up)
chain: B1 chain with K229A, R230A, K231A
B4: MBP-Mgm101^Y268A (natural protein, yeast, UniProt P32787 23-269, looked up)
chain: B1 chain with Y246A
B5: MBP-Mgm101^W257A (natural protein, yeast, UniProt P32787 23-269, looked up)
chain: B1 chain with W235A
B6: Mgm101^Y139A (tag-free) (natural protein, yeast, UniProt P32787 23-269, looked up)
chain: B1 chain with Y117A
B7: Mgm101^K253A (tag-free) (natural protein, yeast, UniProt P32787 23-269, looked up)
chain: B1 chain with K231A
B8: MBP-Mgm101^K253A (natural protein, yeast, UniProt P32787 23-269, looked up)
chain: B1 chain with K231A

Biological target: the molecule itself
Test: SEC

Binding result, binds:
B1
B2
B3
B4
B5
B6
B7
B8
